Measurements published in patent publication EP2698431B1 (Chugai Seiyaku Kabushiki Kaisha, dated 2020).
Numbering of substitutions follows the chain as printed. Like-named read-outs stand apart in the source and are kept apart here.

T1: mouse FcγRIIb (mouse, UniProt P08101 40-217, limits assumed)
T1 construct: bought; also called mFcgRIIb; mFcgRII
T1 sequence (looked up): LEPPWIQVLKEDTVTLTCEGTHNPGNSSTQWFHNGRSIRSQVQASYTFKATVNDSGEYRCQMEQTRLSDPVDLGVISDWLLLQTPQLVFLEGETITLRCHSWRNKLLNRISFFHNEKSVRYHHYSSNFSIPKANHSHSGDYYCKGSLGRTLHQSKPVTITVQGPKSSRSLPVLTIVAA

T2: mouse FcγRIII (mouse, UniProt P08508 31-215)
T2 construct: bought; also called mFcgRIII
T2 sequence (looked up): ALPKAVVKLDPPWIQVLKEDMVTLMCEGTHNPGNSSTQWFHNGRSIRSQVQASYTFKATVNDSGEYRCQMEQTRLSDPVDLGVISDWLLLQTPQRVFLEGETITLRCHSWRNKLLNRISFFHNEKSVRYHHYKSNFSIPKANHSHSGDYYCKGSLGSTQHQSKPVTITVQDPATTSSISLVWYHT

T3: mouse FcγRIV (mouse, UniProt A0A0B4J1G0 21-203)
T3 construct: bought; also called mFcgRIV
T3 sequence: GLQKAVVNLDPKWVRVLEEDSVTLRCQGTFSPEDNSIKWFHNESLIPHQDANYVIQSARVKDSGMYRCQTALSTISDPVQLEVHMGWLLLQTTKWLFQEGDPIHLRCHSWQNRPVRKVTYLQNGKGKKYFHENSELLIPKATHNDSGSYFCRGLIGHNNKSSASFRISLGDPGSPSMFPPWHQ

T4: mouse FcγRI (mouse, UniProt P26151 25-297)
T4 construct: bought; also called mFcgRI
T4 sequence (looked up): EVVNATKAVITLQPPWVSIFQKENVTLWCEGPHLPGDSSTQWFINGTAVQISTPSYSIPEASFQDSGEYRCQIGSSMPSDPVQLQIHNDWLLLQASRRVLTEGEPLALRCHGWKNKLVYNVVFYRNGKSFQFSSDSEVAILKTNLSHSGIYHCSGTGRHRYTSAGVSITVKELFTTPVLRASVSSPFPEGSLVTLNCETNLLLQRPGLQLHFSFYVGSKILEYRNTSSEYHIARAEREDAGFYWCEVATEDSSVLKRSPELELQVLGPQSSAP

B1: VH3/L(WT)-IgG1-F890 (antibody)
chain 1: QVQLQESGPGLVKPSETLSLTCAVSGHSISHDHAWSWVRQPPGEGLEWIGFISYSGITNYNPSLQGRVTISRDNSKNTLYLQMNSLRAEDTAVYYCARSLARTTAMDYWGEGTLVTVSSASTKGPSVFPLAPSSKSTSGGTAALGCLVKDYFPEPVTVSWNSGALTSGVHTFPAVLQSSGLYSLSSVVTVPSSSLGTQTYICNVNHKPSNTKVDKKVEPKSCDKTHTCPPCPAPELLGGPSVFLFPPKPKDTLYISRTPEVTCVVVDVSHEDPEVKFNWYVDGVEVHNAKTKPREEQYNSTYRVVSVLTVLHQDWLNGKEYKCKVSNKALPAPIEKTISKAKGQPREPQVYTLPPSRDELTKNQVSLTCLVKGFYPSDIAVEWESNGQPENNYKTTPPVLDSDGSFFLYSKLTVDKSRWQQGNVFSCSVMHEALHYHVTQKSLSLSP
chain 2: not shown
B2: VH3/L(WT)-IgG1-F947 (antibody)
chain 1: B1 chain 1 with T252V, T309Q, V310P, Q313A
chain 2: not shown
B3: VH3/L(WT)-IgG1-F1009 (antibody)
chain 1: B1 chain 1 with L237R, S241K, T252V, T309Q, V310P, Q313A
chain 2: not shown

Tests used:
[1] = target: T5, human FcRn (soluble, complexed with β2-microglobulin) (human, UniProt P61769 21-119); experiment: SPR pH7.0
T5 sequence (P61769 21-119, one chain of several): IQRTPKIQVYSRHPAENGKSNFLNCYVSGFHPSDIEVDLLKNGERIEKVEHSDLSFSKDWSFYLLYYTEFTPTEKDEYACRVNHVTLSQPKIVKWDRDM

mouse FcγRIIb [2] = target: T1, mouse FcγRIIb; experiment: SPR pH7.4
mouse FcγRIII [3] = target: T2, mouse FcγRIII; experiment: SPR pH7.4
mouse FcγRIV [4] = target: T3, mouse FcγRIV; experiment: SPR pH7.4
mouse FcγRI [5] = target: T4, mouse FcγRI; experiment: SPR pH7.4
[6] = target: T5, human FcRn (soluble, complexed with …); experiment: SPR pH7.0; remark: listed apart in the source
[7] = target: T5, human FcRn (soluble, complexed with …); experiment: SPR pH7.0; remark: listed apart in the source
[8] = target: T5, human FcRn (soluble, complexed with …); experiment: SPR pH7.0; remark: listed apart in the source
mouse FcγRIIb [9] = target: T1, mouse FcγRIIb; experiment: SPR pH7.4; parameters: unit not given here
mouse FcγRIII [10] = target: T2, mouse FcγRIII; experiment: SPR pH7.4; parameters: unit not given here
mouse FcγRIV [11] = target: T3, mouse FcγRIV; experiment: SPR pH7.4; parameters: unit not given here
mouse FcγRI [12] = target: T4, mouse FcγRI; experiment: SPR pH7.4; parameters: unit not given here
[13] = target: T5, human FcRn (soluble, complexed with …); experiment: SPR pH7.0; remark: listed apart in the source
[14] = target: T5, human FcRn (soluble, complexed with …); experiment: SPR pH7.0; remark: listed apart in the source

Binder | Kd [1] [nM] | binding amount (mouse FcγRIIb [2]) [RU] | binding amount (mouse FcγRIII [3]) [RU] | binding amount (mouse FcγRIV [4]) [RU] | binding amount (mouse FcγRI [5]) [RU] | Kd [6] [nM] | Kd [7] [nM] | Kd [8] [nM] | binding amount (mouse FcγRIIb [9]) | binding amount (mouse FcγRIII [10]) | binding amount (mouse FcγRIV [11]) | binding amount (mouse FcγRI [12]) | Kd [13] [nM] | Kd [14] [nM]
B1 | 110 | 69.3 | 284 | 230 | 268 | 107 | 110 |  |  |  |  |  |  | 
B2 | 11 | 117 | 382 | 242 | 299 | 11 |  | 11 | 129 | 664 | 279 | 329 | 11 | 
B3 | 12 | -1.5 | -12.9 | 7.2 | 0.6 | 12 |  |  |  |  |  |  |  | 12
